Data published in paper PMC4207793.

Molecular target: trimerized sTNFRII-gAD fusion protein (UniProt P20333)
Test: AUC; ultracentrifuge analysis of the purified trimerized sTNFRII-gAD

- stoichiometry N: 3
Substance: trimerized sTNFRII-gAD fusion protein (from UniProt P20333 23-257)
